Experimental data taken from patent US20240002495A1 (MITSUBISHI TANABE PHARMA, published 2024).

Target: T1, recombinant human ST2 Fc chimera (ALX-201-367-C050, Enzo Life Science) (human, UniProt Q01638 19-328)
T1 construct: bought; also called human IL-33 receptor protein; human IL-33 receptor (ST2)
T1 sequence (looked up): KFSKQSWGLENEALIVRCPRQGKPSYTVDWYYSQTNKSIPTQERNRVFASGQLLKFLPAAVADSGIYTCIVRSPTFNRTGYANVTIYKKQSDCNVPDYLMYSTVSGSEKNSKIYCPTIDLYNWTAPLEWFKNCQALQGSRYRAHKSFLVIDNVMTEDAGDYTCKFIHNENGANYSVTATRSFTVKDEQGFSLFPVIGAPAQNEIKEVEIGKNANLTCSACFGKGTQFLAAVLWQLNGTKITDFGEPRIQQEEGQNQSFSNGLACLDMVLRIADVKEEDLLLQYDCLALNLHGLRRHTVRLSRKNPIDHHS
Assay: SPR (ProteOn), hIL-33 on chip, ST2 Fc chimera as analyte
Text: Each peptide was N-terminally biotinylated, and was immobilized as ligand onto a NeutrAvidin sensor chip of a surface plasmon resonance (SPR) system (ProteOn XPR36, available from Bio-Rad Laboratories, Inc.). […] The resulting protein (hIL-33) as a ligand was immobilized onto the SPR sensor chip. Each test antibody, the human IL-33 receptor protein (recombinant human ST2 Fc chimera) (ALX-201-367-C050, available from Enzo Life Science, Inc.), or buffer (0.05% Tween20/PBS) alone was then loaded as an analyte onto the sensor chip containing the ligand immobilized thereon (antibody concentration: […]; flow rate: 100 μl/min), to allow them to bind to the ligand. After washing, the amount of analyte (amount of antibody) bound to the ligand on the sensor chip was measured as RU value.

B1: mature human IL-33 (residues 112 to 270) N-terminally linked with the Avitag sequence, biotinylated (ligand, not shown: small tags and cut ends)
chain: SITGISPITEYLASLSTYNDQSITFALEDESYEIYVEDLKKDEKKDKVLLSYYESQHPSNESGDGVDGKMLMVTLSPTKDFWLHANNKEHSVELHKCEKPLPDQAFFVLHNMHSNCVSFECKTDPGVFIGVKDNHLALIKVDSSENLCTENILFKLSET
modifications: biotin on the AviTag sequence (biotin ligase reaction)
notes: also called hIL-33
- binding result: binds
